In US20030104507A1, “Method for detection of ATP” (priority 2001, published 2003):
Like-named read-outs stand apart in the source and are kept apart here.

Columns and labels:
[1] = biological target: native firefly luciferase (Photinus pyralis, UniProt P08659); settings: cited from earlier work
[2] = tested on: LucPpe2m146; assay type: biochemical, Photuris pennsylvanica; settings: for Half life: buffer; for Average rlu: 37° C.
Procedure: The stability of a reagent composition composition comprising LucPpe2 luciferase was compared to a reagent composition comprising LucPpe2m90 and a reagent composition comprising LucPpe2m146, in the presence and absence of 0.1% DTAB. These mutant luciferases are thermostable; they are described in detail in PCT application PCT/US99/30925, filed Dec. 22, 1999.
Each enzyme was diluted to 0.05 mg/ml to a final volume of 1.0 ml in either 25 mM HEPES, pH 8.0 or 20 mM citrate, pH 6.0; both with 100 mM NaCl, 1 mM EDTA, 0.1% gelatin and 5% glycerol. In half of the samples, 0.1% DTAB was added. The enzyme solutions (“reagent compositions”) were incubated at 37° C.
At various timepoints, 10 μl of enzyme solution was transferred to a 96-well luminometer plate in triplicate. Then, in triplicate, 100 μl room temperature luciferase assay reagent (1 mM luciferin, 0.2 mM ATP, 10 MM MgSO4 in 50 mM HEPES, pH 8.0) was added to each 10 μl enzyme solution aliquot, mixed and immediately read in a Dynex MLX microtiter plate luminometer. The ATP in the luciferase assay reagent is at a saturating concentration. The average rlu values are reported, as are the half lives of the reagent composition activity as measured by luminescence (Table P). Half-life was calculated using the formula log (0.5)/slope of the data plotted as time (x axis) versus log value of rlu. The time zero is actually about 2-3 minutes after the mixing of enzyme and substrate; this could account for the lower numbers in the presence of DTAB at time 0 than in the absence of DTAB.

native firefly luciferase, sequence (P08659 whole entry): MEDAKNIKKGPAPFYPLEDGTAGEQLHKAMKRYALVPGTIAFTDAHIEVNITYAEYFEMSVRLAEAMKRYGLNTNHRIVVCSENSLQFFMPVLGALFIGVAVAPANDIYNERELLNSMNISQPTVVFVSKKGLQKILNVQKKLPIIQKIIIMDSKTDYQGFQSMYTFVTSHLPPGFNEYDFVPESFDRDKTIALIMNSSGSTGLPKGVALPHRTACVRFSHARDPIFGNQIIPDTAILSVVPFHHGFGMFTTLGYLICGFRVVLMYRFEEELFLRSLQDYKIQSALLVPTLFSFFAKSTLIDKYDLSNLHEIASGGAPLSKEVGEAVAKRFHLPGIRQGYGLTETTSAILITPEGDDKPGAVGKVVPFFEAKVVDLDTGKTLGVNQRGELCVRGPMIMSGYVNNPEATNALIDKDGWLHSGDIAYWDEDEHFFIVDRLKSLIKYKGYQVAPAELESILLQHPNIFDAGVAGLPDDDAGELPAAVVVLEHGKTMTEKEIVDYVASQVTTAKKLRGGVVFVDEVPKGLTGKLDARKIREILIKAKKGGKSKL

For `Cc1cc(C(C)(C)CC(C)(C)C)ccc1OCCOCC[N+](C)(C)Cc1ccccc1.[Cl-]` [methylbenzethonium chloride], the “effect on native firefly luciferase” value [1] is given as “inactivated”.

In the case of benzalkonium chloride, the “effect on native firefly luciferase” value [1] is given as “inactivated”.

B1: LucPpe2m146: mutant luciferase derived from LucPpe2, SEQ ID NO:4 (protein)
chain: MADKNILYGPEPFYPLEDGTAGEQMFDALSRYAAIPGCIALTNAHTKENVLYEEFLKLSCRLAESFKKYGLKQNDTIAVCSENSLQFFLPVIASLYLGIIVAPVNDKYIERELIHSLGIVKPRIVFCSKNTFQKVLNVKSKLKSIETIIILDLNEDLGGYQCLNNFISQNSDSNLDVKKFKPYSFNRDDQVASIMFSSGTTGLPKGVMLTHKNIVARFSIAKDPTFGNAINPTSAILTVIPFHHGFGMMTTLGYFTCGFRVVLMHTFEEKLFLQSLQDYKVESTLLVPTLMAFLAKSALVEKYDLSHLKEIASGGAPLSKEIGEMVKKRFKLNFVRQGYGLTETTSAVLITPKGDAKPGSTGKIVPLHAVKVVDPTTGKILGPNEPGELYFKGPMIMKGYYNNEEATKAIIDNDGWLRSGDIAYYDNDGHFYIVDRLKSLIKYKGYQVAPAEIEGILLQHPYIVDAGVTGIPDEAAGELPAAGVVVQTGKYLNEQIVQDYVASQVSTAKWLRGGVKFLDEIPKGSTGKIDRKVLRQMLEKHTNG
modifications: Mutant of LucPpe2 luciferase
With B1 the “Half life” value ([2]; pH 6) was 13.68 h, the “Half life” value ([2]; pH 8) was 9.925 h and the Average rlu ([2]; pH 6.0 + 0.1% DTAB, 0 min) was 5945.34 rlu. For the same molecule, the Average rlu ([2]; pH 6.0 + 0.1% DTAB, 61 min) was 5989.65 rlu, the Average rlu ([2]; pH 6.0 + 0.1% DTAB, 125 min) was 3754.71 rlu and the Average rlu ([2]; pH 6.0 + 0.1% DTAB, 183 min) was 4839.58 rlu. The Average rlu ([2]; pH 6.0 + 0.1% DTAB, 237 min) was 4951.0 rlu, the Average rlu ([2]; pH 6.0, 0 min) was 7685.01 rlu and the Average rlu ([2]; pH 6.0, 61 min) was 7077.29 rlu. It also gave an Average rlu ([2]; pH 6.0, 125 min) of 5507.01 rlu, an Average rlu ([2]; pH 6.0, 183 min) of 6144.94 rlu and an Average rlu ([2]; pH 6.0, 237 min) of 6471.76 rlu. The Average rlu ([2]; pH 8.0 + 0.1% DTAB, 0 min) was 6445.57 rlu, the Average rlu ([2]; pH 8.0 + 0.1% DTAB, 61 min) was 6214.56 rlu and the Average rlu ([2]; pH 8.0 + 0.1% DTAB, 125 min) was 4018.92 rlu. For the same molecule, the Average rlu ([2]; pH 8.0 + 0.1% DTAB, 183 min) was 4020.56 rlu, the Average rlu ([2]; pH 8.0 + 0.1% DTAB, 237 min) was 3734.59 rlu and the Average rlu ([2]; pH 8.0, 0 min) was 6652.84 rlu. For the same molecule, the Average rlu ([2]; pH 8.0, 61 min) was 6577.91 rlu, the Average rlu ([2]; pH 8.0, 125 min) was 5192.73 rlu and the Average rlu ([2]; pH 8.0, 183 min) was 5476.86 rlu. It also gave an Average rlu ([2]; pH 8.0, 237 min) of 5174.22 rlu.
